Experimental data reported in publication PMC10786891, “Massively parallel profiling of RNA-targeting CRISPR-Cas13d”.
Positions count from the first letter of the chain named. Names and notes keep the numbering of the source.

T1: EsCas13d, nuclease-dead (Eubacterium siraeum, UniProt B0MS50, R295A;H300A;R849A;H854A)
T1 sequence: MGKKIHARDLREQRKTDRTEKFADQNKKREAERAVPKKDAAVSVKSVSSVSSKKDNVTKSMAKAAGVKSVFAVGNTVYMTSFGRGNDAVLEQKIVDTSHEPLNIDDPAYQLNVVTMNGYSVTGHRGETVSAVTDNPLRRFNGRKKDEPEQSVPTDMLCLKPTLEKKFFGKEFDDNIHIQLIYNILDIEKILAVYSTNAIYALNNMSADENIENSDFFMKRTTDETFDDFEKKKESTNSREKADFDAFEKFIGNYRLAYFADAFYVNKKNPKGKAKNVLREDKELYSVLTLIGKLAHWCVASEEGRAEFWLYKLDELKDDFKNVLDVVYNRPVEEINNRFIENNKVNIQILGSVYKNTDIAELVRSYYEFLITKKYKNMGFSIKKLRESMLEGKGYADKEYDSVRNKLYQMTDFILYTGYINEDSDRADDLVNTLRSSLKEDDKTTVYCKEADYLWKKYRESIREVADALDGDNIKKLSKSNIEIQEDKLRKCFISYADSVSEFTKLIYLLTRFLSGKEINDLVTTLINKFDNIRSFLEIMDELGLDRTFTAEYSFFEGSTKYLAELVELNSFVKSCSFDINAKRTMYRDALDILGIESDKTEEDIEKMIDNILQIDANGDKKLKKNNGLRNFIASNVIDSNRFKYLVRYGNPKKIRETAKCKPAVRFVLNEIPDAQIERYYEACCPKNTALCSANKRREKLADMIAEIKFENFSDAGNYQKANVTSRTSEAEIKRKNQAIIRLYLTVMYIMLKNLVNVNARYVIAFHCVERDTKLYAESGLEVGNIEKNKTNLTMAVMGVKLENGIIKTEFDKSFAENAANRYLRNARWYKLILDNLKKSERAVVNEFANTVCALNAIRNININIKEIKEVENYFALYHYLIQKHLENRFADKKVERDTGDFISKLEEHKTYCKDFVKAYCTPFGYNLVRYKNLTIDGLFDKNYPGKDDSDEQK

B1: target 1 A1C,G12U (mixed)
RNA 1: CACCCGUGCAAAAAUGCAGGGGUCUAAAACUGAGCGGAUAACCUCUCUAUGG
RNA 2: GGGAAUGGAUCCACAUCUACGAAUUCGUACCAUAGAGAGUUUAUCCGCUCCCCGAGAUCGGAAGAGCACACGU
B2: target 1 A1G,G12U (mixed)
RNA 1: B1 RNA 1
RNA 2: B1 RNA 2 with C51G
B3: target 1 U10A,A16U (mixed)
RNA 1: B1 RNA 1
RNA 2: B1 RNA 2 with A36U, U40G, U42A, C51A
B4: target 1 insC 3' of 14,insC 3' of 5 (mixed)
RNA 1: B1 RNA 1
RNA 2: GGGAAUGGAUCCACAUCUACGAAUUCGUACCAUAGAGACGGUUAUCCGCCUCACCGAGAUCGGAAGAGCACACGU
B5: target 1 U8C,U19G (mixed)
RNA 1: B1 RNA 1
RNA 2: B1 RNA 2 with U33G, U40G, U44C, C51A
B6: target 1 insU 3' of 12,insG 3' of 4 (mixed)
RNA 1: B1 RNA 1
RNA 2: B4 RNA 2 with C39G, G41U, C50G
B7: target 1 insA 3' of 13,insC 3' of 5 (mixed)
RNA 1: B1 RNA 1
RNA 2: B4 RNA 2 with C39G, G40A
B8: target 1 C21A (mixed)
RNA 1: B1 RNA 1
RNA 2: B1 RNA 2 with C31A, U40G, C51A
B9: target 1 insU 3' of 5,insU 3' of 5 (mixed)
RNA 1: B1 RNA 1
RNA 2: B4 RNA 2 with C39G, G41U, U43A, A44U, U45C, C47G, G48U, C49U
B10: target 1 A14G,G17U (mixed)
RNA 1: B1 RNA 1
RNA 2: B1 RNA 2 with G35U, A38G, U40G, C51A
B11: target 1 del9,del15 (mixed)
RNA 1: B1 RNA 1
RNA 2: GGGAAUGGAUCCACAUCUACGAAUUCGUACCAUAGAAGGUUUCCGCUCACCGAGAUCGGAAGAGCACACGU
B12: target 1 G12U (mixed)
RNA 1: B1 RNA 1
RNA 2: B1 RNA 2 with C51A
B13: target 1 insC 3' of 14,insA 3' of 2 (mixed)
RNA 1: B1 RNA 1
RNA 2: B4 RNA 2 with C50U, U51C, C52A
B14: target 1 insG 3' of 14,insG 3' of 11 (mixed)
RNA 1: B1 RNA 1
RNA 2: B4 RNA 2 with C39G, U43G, A44U, U45A, C46U, G48C, C49G
B15: target 1 C7U,U11G (mixed)
RNA 1: B1 RNA 1
RNA 2: B1 RNA 2 with U40G, U41G, C45U, C51A
B16: target 1 G13A,G17U (mixed)
RNA 1: B1 RNA 1
RNA 2: B1 RNA 2 with G35U, G39A, U40G, C51A
B17: target 1 insC 3' of 18,insU 3' of 6 (mixed)
RNA 1: B1 RNA 1
RNA 2: B4 RNA 2 with G35C, A36G, G37A, A38G, C39A, G48U, C49G
B18: target 1 insA 3' of 15,insU 3' of 7 (mixed)
RNA 1: B1 RNA 1
RNA 2: B4 RNA 2 with C39A, C47U, G48C, C49G
B19: target 1 insA 3' of 13,insC 3' of 11 (mixed)
RNA 1: B1 RNA 1
RNA 2: B4 RNA 2 with C39G, G40A, U43C, A44U, U45A, C46U, G48C, C49G
B20: target 1 C2G,C4A (mixed)
RNA 1: B1 RNA 1
RNA 2: B1 RNA 2 with U40G, C48A, C50G, C51A
B21: target 1 C7G,U19C (mixed)
RNA 1: B1 RNA 1
RNA 2: B1 RNA 2 with U33C, U40G, C45G, C51A
B22: target 1 C6U,G17U (mixed)
RNA 1: B1 RNA 1
RNA 2: B1 RNA 2 with G35U, U40G, C46U, C51A
B23: target 1 insC 3' of 11,insC 3' of 3 (mixed)
RNA 1: B1 RNA 1
RNA 2: B4 RNA 2 with C39G, G41U, U42C, C50U, U51C
B24: target 1 insU 3' of 9,insG 3' of 9 (mixed)
RNA 1: B1 RNA 1
RNA 2: B4 RNA 2 with C39G, G41U, U43A, A44U, U45G, C46U, G48C, C49G
B25: target 1 A9G (mixed)
RNA 1: B1 RNA 1
RNA 2: B1 RNA 2 with U40G, A43G, C51A
B26: target 1 insC 3' of 8,insG 3' of 2 (mixed)
RNA 1: B1 RNA 1
RNA 2: B4 RNA 2 with C39G, G41U, U43A, A44U, U45C, C50U, U51C, C52G
B27: target 1 insC 3' of 17,insG 3' of 6 (mixed)
RNA 1: B1 RNA 1
RNA 2: B4 RNA 2 with A36C, G37A, A38G, C39A, C49G
B28: target 1 C6U,U19A (mixed)
RNA 1: B1 RNA 1
RNA 2: B1 RNA 2 with U33A, U40G, C46U, C51A
B29: target 1 insC 3' of 14,insA 3' of 11 (mixed)
RNA 1: B1 RNA 1
RNA 2: B4 RNA 2 with U43A, A44U, U45A, C46U, G48C, C49G
B30: target 1 insG 3' of 20,insA 3' of 7 (mixed)
RNA 1: B1 RNA 1
RNA 2: GGGAAUGGAUCCACAUCUACGAAUUCGUACCAGUAGAGAGGUUAUCACGCUCACCGAGAUCGGAAGAGCACACGU
B31: target 1 C6U,U11C (mixed)
RNA 1: B1 RNA 1
RNA 2: B1 RNA 2 with U40G, U41C, C46U, C51A
B32: target 1 U3A,U8A (mixed)
RNA 1: B1 RNA 1
RNA 2: B1 RNA 2 with U40G, U44A, U49A, C51A
B33: target 1 insU 3' of 12 (mixed)
RNA 1: B1 RNA 1
RNA 2: GGGAAUGGAUCCACAUCUACGAAUUCGUACCAUAGAGAGGUUUAUCCGCUCACCGAGAUCGGAAGAGCACACGU
B34: target 1 C4A,G13U (mixed)
RNA 1: B1 RNA 1
RNA 2: B1 RNA 2 with G39U, U40G, C48A, C51A
B35: target 1 insA 3' of 12,insG 3' of 8 (mixed)
RNA 1: B1 RNA 1
RNA 2: B4 RNA 2 with C39G, G41A, C46G, G48C, C49G

What follows are binders tested against T1, EsCas13d, nuclease-dead (assay: crRNA (strand 1, pre-loaded); Mg2+; 40 mM Tris-HCl pH 7.5, 150 mM NaCl, 6 mM MgCl2, 1 mM DTT, 0.1% Tween-20, 0.2 mg/ml BSA; 25 C; 10 min per concentration, then washed). Conditions: tags: His6-TwinStrep-SUMO cleaved; N-terminal SNAP kept (SNAP-Surface 488); label: 3' end held by stalled T7 RNA polymerase.
Work on B1 yielded a Kd of 13.9 ± 2.1 nM.
With B2 the Kd was 9.4 ± 0.6 nM.
Work on B3 yielded a Kd of 42 ± 4 nM.
B4 showed a Kd of 75 ± 17 nM.
For B5, the Kd was 76 ± 10 nM.
Binder B6 has a Kd of 4.6 ± 0.17 nM.
B7 was tested, and the Kd was 3.35 ± 0.18 nM.
Work on B8 yielded a Kd of 24.1 ± 2 nM.
B9 gave a Kd of 19 ± 4 nM.
Binder B10 has a Kd of 78 ± 15 nM.
Work on B11 yielded a Kd of 44 ± 6 nM.
For B12, the Kd was 10.3 ± 0.5 nM.
In the case of B13, the Kd is reported as 52 ± 13 nM.
B14 showed a Kd of 20.7 ± 0.9 nM.
Binder B15 has a Kd of 9.7 ± 0.6 nM.
Work on B16 yielded a Kd of 28.6 ± 2.7 nM.
In the case of B17, the Kd is reported as 39 ± 4 nM.
B18 gave a Kd of 13.5 ± 0.9 nM.
B19 was tested, and the Kd was 7.8 ± 0.6 nM.
B20 showed a Kd of 6.94 ± 0.32 nM.
B21 was tested, and the Kd was 32.2 ± 2.7 nM.
With B22 the Kd was 22.3 ± 1.5 nM.
In the case of B23, the Kd is reported as 28.9 ± 2.7 nM.
Work on B24 yielded a Kd of 13.2 ± 0.5 nM.
For B25, the Kd was 13.2 ± 0.4 nM.
With B26 the Kd was 21 ± 1.5 nM.
B27 was tested, and the Kd was 43 ± 8 nM.
In the case of B28, the Kd is reported as 34.9 ± 2.4 nM.
B29 was tested, and the Kd was 42 ± 5 nM.
B30 was tested, and the Kd was 26.1 ± 3 nM.
B31 showed a Kd of 9.1 ± 0.6 nM.
B32 showed a Kd of 10.6 ± 0.5 nM.
B33 was tested, and the Kd was 7.54 ± 0.28 nM.
Binder B34 has a Kd of ~70 nM.
For B35, the Kd was 32 ± 2.7 nM.
